We go through 1 molecule from US20120040375A1 (NATIONAL UNIVERSITY CORPORATION HOKKAIDO UNIVERSITY, published 2012).

One experiment deals with T1, Biotin-Tn(DT*R)-100 (N-terminal Biotin-PEG-linker; Thr(GalNAcα) in each Asp-Thr-Arg (5 sites); C-terminal amide (NH2)).
T1 construct: also called Compound No. 21; Compound 21
The experiment in a line: SPR, Biacore T100, Biotin-Tn(DT*R)-100 on sensor chip SA.

For experiment [1], the target named is T2, biotin-labeled T-47D culture supernatant (MUC1) (human, UniProt P15941 24-1097, limits assumed, biotin-labeled with Sulfo-NHS-Biotin).
T2 construct: The whole concentrated supernatant was biotinylated and put on the chip
The experiment in a line: SPR, Biacore, biotin-labeled T-47D culture supernatant on sensor chip SA.

T2 sequence (P15941 24-1097 limits assumed): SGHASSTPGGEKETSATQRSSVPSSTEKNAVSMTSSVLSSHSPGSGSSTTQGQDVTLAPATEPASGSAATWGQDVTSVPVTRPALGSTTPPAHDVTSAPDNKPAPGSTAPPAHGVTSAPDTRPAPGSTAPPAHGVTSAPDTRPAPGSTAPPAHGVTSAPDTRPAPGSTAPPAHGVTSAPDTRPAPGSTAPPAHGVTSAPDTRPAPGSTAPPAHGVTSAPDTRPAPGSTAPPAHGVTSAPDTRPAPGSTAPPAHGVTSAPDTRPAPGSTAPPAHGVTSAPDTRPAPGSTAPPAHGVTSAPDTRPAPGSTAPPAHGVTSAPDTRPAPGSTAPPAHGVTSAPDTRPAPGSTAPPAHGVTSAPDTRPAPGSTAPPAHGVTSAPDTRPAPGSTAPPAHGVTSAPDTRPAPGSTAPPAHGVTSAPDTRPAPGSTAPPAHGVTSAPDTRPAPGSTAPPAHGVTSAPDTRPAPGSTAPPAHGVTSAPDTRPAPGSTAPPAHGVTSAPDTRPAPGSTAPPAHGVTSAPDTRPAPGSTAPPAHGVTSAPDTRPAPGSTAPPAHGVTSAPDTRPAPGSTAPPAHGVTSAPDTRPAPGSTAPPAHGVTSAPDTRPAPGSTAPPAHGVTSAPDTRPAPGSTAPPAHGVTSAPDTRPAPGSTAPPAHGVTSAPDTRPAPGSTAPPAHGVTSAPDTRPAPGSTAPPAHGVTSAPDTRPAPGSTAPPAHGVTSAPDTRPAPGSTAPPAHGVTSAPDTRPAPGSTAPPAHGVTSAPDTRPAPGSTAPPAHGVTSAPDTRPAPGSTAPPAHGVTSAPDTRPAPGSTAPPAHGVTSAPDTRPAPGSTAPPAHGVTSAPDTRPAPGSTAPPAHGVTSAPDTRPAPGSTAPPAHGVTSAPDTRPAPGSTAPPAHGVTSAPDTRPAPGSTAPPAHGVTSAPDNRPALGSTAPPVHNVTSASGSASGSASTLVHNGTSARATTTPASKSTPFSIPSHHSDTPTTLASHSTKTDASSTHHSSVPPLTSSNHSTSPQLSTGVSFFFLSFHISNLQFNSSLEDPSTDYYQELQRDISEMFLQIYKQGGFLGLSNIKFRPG
T1 sequence (peptide, as listed by the source limits assumed): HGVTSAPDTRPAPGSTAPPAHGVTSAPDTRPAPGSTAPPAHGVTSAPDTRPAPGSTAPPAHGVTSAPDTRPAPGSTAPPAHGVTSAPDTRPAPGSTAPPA

B1: PankoMab (antibody, V domains shown)
VH: EVQLVESGGGLVQPGGSMRLSCVASGFPFSNYWMNWVRQAPGKGLEWVGEIRLKSNNYTTHYAESVKGRFTISRDDSKNSLYLQMNSLKTEDTAVYYCTRHYYFDYWGQGTLVTVSS
VL: DIVMTQSPLSNPVTPGEPASISCRSSKSLLHSNGITYFFWYLQKPGQSPQLLIYQMSNLASGVPDRFSGSGSGTDFTLRISRVEAEDVGVYYCAQNLELPPTFGQGTKVEIKR
Take B1: in the experiment with Biotin-Tn(DT*R)-100, the affinity, expressed as Kd, was 1500 nM; the koff was 0.19 s⁻¹; the kon was found to be 120000 M⁻¹ s⁻¹. In experiment [1], this molecule gave a Kd of 100 nM, a koff of 0.045 s⁻¹ and a kon of 440000 M⁻¹ s⁻¹.
